Test results from PMC11901735 (Molecules, 2025).

Assays:
[1] = biological target: Ex-4-C40, exendin-4 with an additional Cys at the C-terminus (UniProt P26349 48-87); assay: SPR; Biacore T200; recombinant human GLP-1R (0.5 μM) immobilized on a CM5 sensor chip; peptides injected at four-fold serial dilutions (0, 0.1-100 nM); n = 3; 1:1 interaction model; conditions: both partners purified
exendin-4 = exendin-4 (UniProt P26349 48-87); assay: as above; conditions: both partners purified

B1: Recombinant human GLP-1R protein (receptor)
chain: RPQGATVSLWETVQKWREYRRQCQRSLTEDPPPATDLFCNRTFDEYACWPDGEPGSFVNVSCPWYLPWASSVPQGHVYRFCTAEGLWLQKDNSSLPWRDLSECEESKRGERSSPEEQLLFLY
modifications: Limits are not printed. The Sino Biological H02H catalogue suffix suggests a soluble extracellular domain with a C-terminal human Fc (left out). Residues 24-145 are the usual ectodomain construct …
Binder B1 has a Kd [1] of 36 nM and a Kd (exendin-4) of 33.6 nM.
